# Data from patent US11510990B2, “Conjugates of fusion proteins of GLP-1 and FGF21” (BEIJING QL BIOPHARMACEUTICAL CO., LTD., priority 2020, dated 2022).
# Residue numbers refer to the chain shown, from its start.
# B1: Compound 4: GLP-1/FGF21 fusion polypeptide SEQ ID NO: 4 conjugated with Moiety A at 51K and 231K (conjugate)
# chain: HGEGTFTSDVSSYLEEQAAREFIAWLVRGGGGGGGSGGGGSGGGGSGGGGKHPIPDSSPLLQFGGQVRQRYLYTDDAQQTEAHLEIREDGTVGGAADQSPESLLQLRALRPGVIQILGVRTSRFLCQRPDGALYGSLHFDPEACSFRELLLEDGYNVYQSEAHGLPLHLPGQRSPHRDPAPRGPARFLPLPGLPPALPEPPGILAPQPPDVGSSDPLSLVGGSQGRSPSYKS
# modifications: Moiety A conjugated at K51 and K231
# B2: Compound 10: GLP-1/FGF21 fusion polypeptide SEQ ID NO: 10 conjugated with Moiety A at 222K (conjugate)
# chain: B1 chain with K51S, G222K, K231E
# modifications: Moiety A conjugated at K222
# B3: Compound 9: GLP-1/FGF21 fusion polypeptide SEQ ID NO: 9 conjugated with Moiety A at 231K (conjugate)
# chain: B1 chain with K51S
# modifications: Moiety A conjugated at K231
# B4: Compound 19: GLP-1/FGF21 fusion polypeptide SEQ ID NO: 19 conjugated with Moiety A at 51K and 222K (conjugate)
# chain: B1 chain with G222K, K231E
# modifications: Moiety A conjugated at K51 and K222
# B5: Compound 63: GLP-1/FGF21 fusion polypeptide SEQ ID NO: 160 conjugated with Moiety B at 51C and 222C (conjugate)
# chain: B1 chain with R20K, R28K, K51C, R107K, R110K, R120K, R173K, G222C, K231E
# modifications: Moiety B conjugated at C51 and C222
# B6: Compound 71: GLP-1/FGF21 fusion polypeptide SEQ ID NO: 168 conjugated with Moiety B at 52C and 282C (conjugate)
# chain: HGEGTFTSDVSSYLEEQAAKEFIAWLVKGGGGAQPGAQPGAQPGAQPGAQPCQAPGAQPGAQPGAQPGAQPGAQPGAQPGAQPGAQPGAQPGAQPGAQPGAQPGAQPGAQPHPIPDSSPLLQFGGQVRQRYLYTDDAQQTEAHLEIREDGTVGGAADQSPESLLQLKALKPGVIQILGVKTSRFLCQRPDGALYGSLHFDPEACSFRELLLEDGYNVYQSEAHGLPLHLPGQKSPHRDPAPRGPARFLPLPGLPPALPEPPGILAPQPPDVGSSDPLSLVGCSQGRSPSYES
# modifications: Moiety B conjugated at C52 and C282
# B7: Compound 72: GLP-1/FGF21 fusion polypeptide SEQ ID NO: 169 conjugated with Moiety B at 62C and 282C (conjugate)
# chain: B6 chain with C52G, Q53A, A54Q, A61Q, Q62C
# modifications: Moiety B conjugated at C62 and C282
# B8: Compound 73: GLP-1/FGF21 fusion polypeptide SEQ ID NO: 170 conjugated with Moiety B at 42C and 282C (conjugate)
# chain: B6 chain with A41Q, Q42C, C52G, Q53A, A54Q
# modifications: Moiety B conjugated at C42 and C282
# Assay: Body weight reduction in C57BL/6 mice, daily subcutaneous dosing
# Type: in vivo
# Conditions: 30 nmol/kg, 10-day dosing period (FIGS. 1A-1B)
# Experimental: FIGS. 1A-1F show in vivo activities of fusion protein conjugates. […] Body weight was measured daily. […] Compared to Vehicle control: ***, p<0.001. All data are expressed as mean values and standard error (SEM).
# 10 week old male C57BL/6 mice were injected everyday subcutaneously with 30 nmol/kg exemplary fusion protein conjugates for 10 or 14 days (n=5). Body weight was daily monitored for each individual animal. Day 1 and Day 10 (or Day 14) are first day and last day of molecule dosage. % BW loss=100*(BW on Day n-BW on Day 1)/(BW on Day 1). Data are indicated as mean values and standard error (SEM) or pooled values. Statistical analysis was performed by One-way ANOVA. Body weight reduction on Day 11 in Table 5 is calculated by −1*(% BW loss−% BW loss of vehicle group).
row,Molecule,BW reduction compared to Semaglutide
1,B1,much more enhanced and persistent BW reduction
2,B2,much more enhanced and persistent BW reduction

# Same assay, conditions: male C57BL/6 mice, 30 nmol/kg subcutaneously everyday, Day 11
row,Molecule,Body weight reduction at 30 nmol/kg (% reduction compared to vehicle)(Day11)
1,B1,27.0%
2,B2,20.0%
3,B3,27.2%
4,B4,27.0%
5,B5,24.5%
6,B6,24.5%
7,B7,25.8%
8,B8,20.2%

# Assay: Pharmacokinetic measurement in C57BL/6 mice, single subcutaneous dose, plasma ELISA
# Type: in vivo
# Conditions: 30 nmol/kg subcutaneous
# Experimental: Each fusion protein conjugate was injected subcutaneously into C57BL/6 mice (n=3/group) once and plasma samples were collected at designed timepoints and analyzed by ELISA method. Plasma concentrations are indicated as mean values and standard error (SEM).
# 6-8 week old male C57BL/6 mice were administrated in a single subcutaneous dose of 30 nmol/kg of the exemplary fusion protein conjugates (Compounds 4, 9, 10, 19, 63) or the non-acylated fusion protein (i.e., Compound 3, which has the amino acid sequence identical to Compound 2 but without any conjugation) (n=3/group). Plasma samples were collected pre-dose (−5 min), 0.5 hr, 1 hr, 2 hr, 4 hr, 6 hr, 8 hr, 12 hr and 24 hr hours after the injection. For Compound 3, plasma collection timepoints were −5 min, 0.25 h, 0.5 h, 1 h, 2 h, 4 h and 6 h. The concentrations of the fusion protein conjugates or the non-acylated fusion protein in the plasma were measured by an ELISA assay which has immunoreactivities towards both C-terminal FGF21 and intact N-terminal of GLP-1. Based on the graph showing plasma concentration of each protein versus time after subcutaneous injection, the pharmacokinetic parameters were calculated by WinNonlin.
# Pharmacokinetic data were analyzed by WinNonlin software. Tmax, Cmax, T1/2, AUC and MRT were calculated for each molecule.
Molecule,AUC compared to non-acylated fusion protein (Compound 3),Half-lives of double acylated compared to monoacylated Compounds 9 and 10,PK properties compared to Semaglutide
B1,larger AUC,significantly prolonged half-lives,better PK properties
B2,larger AUC,–,–
B3,larger AUC,–,–
B4,larger AUC,significantly prolonged half-lives,better PK properties
B5,larger AUC,–,–

# Same assay, conditions: single subcutaneous dose 30 nmol/kg, plasma
Molecule,AUClast,Cmax,Terminal t1/2,Tmax
B1,1.0196 µM·h,58.3 nM,19.7 h,8 h
B2,0.4651 µM·h,50.2 nM,1.9 h,4 h
B3,0.7912 µM·h,65.6 nM,3.5 h,6 h
B4,1.018 µM·h,59.9 nM,10.8 h,4 h
B5,1.2948 µM·h,88.8 nM,16.7 h,6.7 h

# Assay: Body weight in DIO mice: fusion protein conjugate against GLP1 alone and FGF21 alone
# Type: in vivo, DIO male C57BL/6 mice
# Conditions: both 10 nmol/kg and 30 nmol/kg, subcutaneously everyday for 21 days
# Experimental: (§1) FIGS. 3A-3B show in vivo efficacy in DIO mice. To evaluate the body weight effect of the fusion proteins, 17 week old DIO mice (C57BL/6 mice on high fat diet for 13 weeks) were dosed everyday subcutaneously with different concentrations of compounds for 21 days. […] Data are expressed as mean values and standard error (SEM). n=5 for each treatment group.
# 17 week old DIO male C57BL/6 mice (˜45 g) were injected everyday subcutaneously with designated proteins (i.e., Compounds 63, 69 and 70) for 21 days. Body weight was measured daily and five animals were used for each treatment group. Day 1 and Day 21 are first day and last day of molecule dosage. % BW loss=100*(BW on Day n-BW on Day 1)/(BW on Day 1). Data are indicated as mean values and standard error (SEM).
row,Molecule,Body weight control compared to GLP1 alone (Compound 70) and FGF21 alone (Compound 69)
1,B5,better body weight control

# Assay: Efficacy study in DIO mice: body weight, fasting glucose, insulin, triglycerides
# Type: in vivo, DIO male C57BL/6 mice
# Conditions: 30 nmol/kg subcutaneously everyday for 21 days
# Experimental: as §1, with “4A-4F” for “3A-3B”, “evaluate effects of the compounds on” for “evaluate”, “weight, blood glucose, plasma insulin and plasma triglyceride in vivo, 17-week” for “weight effect of the fusion proteins, 17 week”
# 17 week old DIO male C57BL/6 mice (˜45 g) were injected everyday subcutaneously with designated proteins (i.e., Compound 63) for 21 days. Body weight was measured daily and five animals were used for each treatment group. Fasting glucose was also monitored on designated days. Body weight and glucose were monitored for each individual animal. Day 1 and Day 21 are first day and last day of molecule dosage. % BW loss=100*(BW on Day n-BW on Day 1)/(BW on Day 1). Terminal blood was collected and EDTA-2k plasma was prepared and frozen in −80° C. for biomarker measurement. Livers were also collected and frozen in liquid nitrogen and stored in −80° C.
# Data are indicated as mean values and standard error (SEM). Statistical analysis was performed by One-way ANOVA.
row,Molecule,"Body weight, glycemic control and lipid profile compared to 30 nmol/kg Semaglutide"
1,B5,better body weight and glycemic control and lipid profile

# Same assay, conditions: comparing 10 nmol/kg and 30 nmol/kg
row,Molecule,Dose dependence of efficacy
1,B5,Dose dependent efficacy
